Test results: patent US20250295794A1 (Memorial Sloan Kettering, published 2025)

B1: P53-BiDE (hu3F8-scFv, huC825-scFv, huP53-tet, GS linker, IgG3 spacer) (bispecific antibody)
chain: EIVMTQTPATLSVSAGERVTITCKASQSVSNDVTWYQQKPGQAPRLLIYSASNRYSGVPARFSGSGYGTEFTFTISSVQSEDFAVYFCQQDYSSFGCGTKLEIKRGGGGSGGGGSGGGGSGGGGSGGGGSGGGGSQVQLVESGPGVVQPGRSLRISCAVSGFSVTNYGVHWVRQPPGKCLEWLGVIWAGGITNYNSAFMSRLTISKDNSKNTVYLQMNSLRAEDTAMYYCASRGGHYGYALDYWGQGTLVTVSSGGGGSGGGGSGGGGSGGGGSHVQLVESGGGLVQPGGSLRLSCAASGFSLTDYGVHWVRQAPGKGLEWLGVIWSGGGTAYNTALISRFTISRDNSKNTLYLQMNSLRAEDTAVYYCARRGSYPYNYFDAWGCGTLVTVSSGGGGSGGGGSGGGGSQAVVTQEPSLTVSPGGTVTLTCGSSTGAVTASNYANWVQQKPGQCPRGLIGGHNNRPPGVPARFSGSLLGGKAALTLLGAQPEDEAEYYCALWYSDHWVIGGGTKLTVLGTPLGDTTHTSGKPLDGEYFTLQIRGRERFEMFRELNEALELKDAQAGKEPGGSGGAPHHHHHH
notes: Self-assembles into a homo-tetramer of about 200 kDa; Its targets GD2 (ganglioside) and Bn-DOTA (hapten) are not proteins; only the self-association is recorded; also called p53 SADA-BiDE
B2: P63-BiDE (hu3F8-scFv, huC825-scFv, huP63-tet, GS linker, IgG3 spacer) (bispecific antibody)
chain: EIVMTQTPATLSVSAGERVTITCKASQSVSNDVTWYQQKPGQAPRLLIYSASNRYSGVPARFSGSGYGTEFTFTISSVQSEDFAVYFCQQDYSSFGCGTKLEIKRGGGGSGGGGSGGGGSGGGGSGGGGSGGGGSQVQLVESGPGVVQPGRSLRISCAVSGFSVTNYGVHWVRQPPGKCLEWLGVIWAGGITNYNSAFMSRLTISKDNSKNTVYLQMNSLRAEDTAMYYCASRGGHYGYALDYWGQGTLVTVSSGGGGSGGGGSGGGGSGGGGSHVQLVESGGGLVQPGGSLRLSCAASGFSLTDYGVHWVRQAPGKGLEWLGVIWSGGGTAYNTALISRFTISRDNSKNTLYLQMNSLRAEDTAVYYCARRGSYPYNYFDAWGCGTLVTVSSGGGGSGGGGSGGGGSQAVVTQEPSLTVSPGGTVTLTCGSSTGAVTASNYANWVQQKPGQCPRGLIGGHNNRPPGVPARFSGSLLGGKAALTLLGAQPEDEAEYYCALWYSDHWVIGGGTKLTVLGTPLGDTTHTSGRSPDDELLYLPVRGRETYEMLLKIKESLELMQYLPQHTIETYRQQQQQQHQHLLQKQGGSGGAPHHHHHH
notes: Self-assembles into a homo-tetramer of about 200 kDa; also called p63 SADA-BiDE
B3: P73-BiDE (hu3F8-scFv, huC825-scFv, huP73-tet, GS linker, IgG3 spacer) (bispecific antibody)
chain: EIVMTQTPATLSVSAGERVTITCKASQSVSNDVTWYQQKPGQAPRLLIYSASNRYSGVPARFSGSGYGTEFTFTISSVQSEDFAVYFCQQDYSSFGCGTKLEIKRGGGGSGGGGSGGGGSGGGGSGGGGSGGGGSQVQLVESGPGVVQPGRSLRISCAVSGFSVTNYGVHWVRQPPGKCLEWLGVIWAGGITNYNSAFMSRLTISKDNSKNTVYLQMNSLRAEDTAMYYCASRGGHYGYALDYWGQGTLVTVSSGGGGSGGGGSGGGGSGGGGSHVQLVESGGGLVQPGGSLRLSCAASGFSLTDYGVHWVRQAPGKGLEWLGVIWSGGGTAYNTALISRFTISRDNSKNTLYLQMNSLRAEDTAVYYCARRGSYPYNYFDAWGCGTLVTVSSGGGGSGGGGSGGGGSQAVVTQEPSLTVSPGGTVTLTCGSSTGAVTASNYANWVQQKPGQCPRGLIGGHNNRPPGVPARFSGSLLGGKAALTLLGAQPEDEAEYYCALWYSDHWVIGGGTKLTVLGTPLGDTTHTSGRHGDEDTYYLQVRGRENFEILMKLKESLELMELVPQPLVDSYRQQQQLLQRPGGSGGAPHHHHHH
notes: Self-assembles into a homo-tetramer of about 200 kDa; also called p73 SADA-BiDE
B4: P53-Cytokine polypeptide (IL15Rα, huP53-tet, IgG3 spacer) (other)
chain: ITCPPPMSVEHADIWVKSYSLYSRERYICNSGFKRKAGTSSLTECVLNKATNVAHWTTPSLKCIRTPLGDTTHTSGKPLDGEYFTLQIRGRERFEMFRELNEALELKDAQAGKEPGGSGGAPHHHHHH
notes: The full complex is described as 8 pairs of IL15Rα/IL15 (about 200 kDa); also called SADA-Cytokine
B5: P63-Cytokine polypeptide (IL15Rα, huP63-tet, IgG3 spacer) (other)
chain: ITCPPPMSVEHADIWVKSYSLYSRERYICNSGFKRKAGTSSLTECVLNKATNVAHWTTPSLKCIRTPLGDTTHTSGRSPDDELLYLPVRGRETYEMLLKIKESLELMQYLPQHTIETYRQQQQQQHQHLLQKQGGSGGAPHHHHHH
notes: The full complex is described as 8 pairs of IL15Rα/IL15; also called SADA-Cytokine
B6: P73-Cytokine polypeptide (IL15Rα, huP73-tet, IgG3 spacer) (other)
chain: ITCPPPMSVEHADIWVKSYSLYSRERYICNSGFKRKAGTSSLTECVLNKATNVAHWTTPSLKCIRTPLGDTTHTSGRHGDEDTYYLQVRGRENFEILMKLKESLELMELVPQPLVDSYRQQQQLLQRPGGSGGAPHHHHHH
notes: as for B5

Experiments:
[1] = molecular target: the molecule itself; assay: fluorescence correlation spectroscopy; half-life of multimer dissociation, one-phase decay fit
Source text: (§1) FIG. 4 depicts a summary of fluorescence correlation spectroscopy (FCS) experiment regarding the SADA domains used here. […] Measurements were taken with a Zeiss LSM 880 confocal microscope. Normalized autocorrelations functions G(T) were then plotted to determine the diffusion times for each SADA-BiDE over time. All samples were compared against a monomeric anti-GD2 BiDE.

[2] = HPLC after single-step affinity purification; main peak at about 16 min is the self-assembled tetramer (self-association through the p53 SADA domain)
[3] = molecular target: the molecule itself; assay: fluorescence correlation spectroscopy; dissociation of the self-assembled multimer after dilution from 500 nM to 0.5 nM, Cy3-175Lu-Bn-DOTA label, one-phase decay fit
Source text: as §1

[4] = HPLC after single-step affinity purification; main peak at about 16 min is the self-assembled tetramer (self-association through the p63 SADA domain)
[5] = HPLC after single-step affinity purification; main peak at about 16 min is the self-assembled tetramer (self-association through the p73 SADA domain)
IL-15 polypeptide = molecular target: T1, IL-15 polypeptide (Homo sapiens (Human), UniProt P40933 49-162); assay: production of the SADA-Cytokine complex; no direct binding assay described
T1 construct: also called sIL15; soluble IL15

[6] = molecular target: the molecule itself; assay: HPLC, traces normalized to peak intensity; main peak is the self-assembled multimer

T1 sequence (P40933 49-162 limits assumed): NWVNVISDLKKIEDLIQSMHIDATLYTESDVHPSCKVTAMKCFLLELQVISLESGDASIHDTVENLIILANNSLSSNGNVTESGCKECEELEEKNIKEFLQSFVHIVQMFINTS

| Binder | half-life [1] [h] | % tetramer (HPLC purity, main peak) [2] [%] | koff [3] [s⁻¹] | % tetramer (HPLC purity, main peak) [4] [%] | % tetramer (HPLC purity, main peak) [5] [%] | binding result (IL-15 polypeptide) | binding result [6] |
| --- | --- | --- | --- | --- | --- | --- | --- |
| B1 | 1.73 | 94.4 | 0.000112 | – | – | – | – |
| B2 | 3.08 | – | 6.3e-05 | 89.2 | – | – | – |
| B3 | 2.03 | – | 9.5e-05 | – | 90.2 | – | – |
| B4 | – | – | – | – | – | binds | binds |
| B5 | – | – | – | – | – | binds | binds |
| B6 | – | – | – | – | – | binds | binds |
